Measured values: PMC4999498

B1: lymphocyte-specific protein-1 (Lsp1, mLsp1): S209A (protein)
parent chain: MAEAAIDPRCEEQEELHAEDSEGLTTQWREEDEEEAAREQRQRERERQLQDQDKDKEDDGGHSLEQPGQQTLISLKSSELDEDEGFGDWSQKPEPRQQFWGNEGTAEGTEPSQSERPEEKQTEESSHQAKVHLEESNLSYREPDPEDAVGGSGEAEEHLIRHQVRTPSPLALEDTVELSSPPLSPTTKLADRTESLNRSIKKSNSVKKSQPTLPISTIDERLQQYTQATESSGRTPKLSRQPSIELPSMAVASTKTLWETGEVQSQSASKTPSCQDIVAGDMSKKSLWEQKGGSKISSTIKSTPSGKRYKFVATGHGKYEKVLVDEGSAP
B2: lymphocyte-specific protein-1 (Lsp1, mLsp1): thiamet-G (TG) (protein)
parent chain: MAEAAIDPRCEEQEELHAEDSEGLTTQWREEDEEEAAREQRQRERERQLQDQDKDKEDDGGHSLEQPGQQTLISLKSSELDEDEGFGDWSQKPEPRQQFWGNEGTAEGTEPSQSERPEEKQTEESSHQAKVHLEESNLSYREPDPEDAVGGSGEAEEHLIRHQVRTPSPLALEDTVELSSPPLSPTTKLADRTESLNRSIKKSNSVKKSQPTLPISTIDERLQQYTQATESSGRTPKLSRQPSIELPSMAVASTKTLWETGEVQSQSASKTPSCQDIVAGDMSKKSLWEQKGGSKISSTIKSTPSGKRYKFVATGHGKYEKVLVDEGSAP

How the values were obtained:
[1] = phospho-S243 immunoblot, anti-IgM-stimulated Ramos; conditions: glycan lost; control: WT Lsp1
[2] = phospho-S243 immunoblot, anti-IgM-stimulated splenic B cells; conditions: glycan gained; control: no TG

Protein | other: phosphorylation at S243 [1] | other: phosphorylation at S243 [2]
B1 | decreases | 
B2 |  | increases
